Experimental data from patent US20240262791A1, “B[…] […] AMINO ACIDS” (priority 2021, published 2024).

Tests used:
[1] = molecular target: Spike protein on SARS-CoV-2 GFP Reporter Virus Particles (pseudotyped lentivirus), wild-type strain (SARS-CoV-2) (UniProt P0DTC2); test: cell-based or functional assay
[2] = molecular target: Spike protein on authentic SARS-CoV-2 Nanoluciferase virus (USA/WA1-2020) (SARS-CoV-2) (UniProt P0DTC2); test: cell-based or functional assay
[3] = molecular target: SARS-CoV-2 (2019-nCoV) Spike RBD-mFc Recombinant Protein (SARS-CoV-2; mouse) (UniProt P0DTC2); test: time course 0 to 16 h at 37 °C, Western blot

mNb6 dimer with one FFY at position 108 of the N-terminal mNb6 (VHH)
IC50, neutralizing pseudovirus [1]: 1.9 nM | IC50, neutralizing authentic SARS-CoV-2 virus [2]: 0.28 nM

ACE2-34FSY (soluble human ACE2, amino acids 1 to 740, FSY at H34, C-terminal His x6) (from UniProt Q9BYF1 18-740) (receptor)
apparent second-order rate constant of covalent crosslinking [3]: 123 M⁻¹ s⁻¹
